Molecular target: T1, recombinant insulin receptor ecto-domain protein rIR (R&D Systems #1444-IR) (UniProt P06213-2 28-944, limits assumed)
T1 construct: extracellular domain; Bought protein; also called soluble IR ectodomain
Assay: competitive BMEC binding assay: scFv-Fc pre-incubated with soluble ectodomain, then cell surface binding on BMECs

T1 sequence (P06213 other isoform, or with tags, fused parts or gaps limits assumed): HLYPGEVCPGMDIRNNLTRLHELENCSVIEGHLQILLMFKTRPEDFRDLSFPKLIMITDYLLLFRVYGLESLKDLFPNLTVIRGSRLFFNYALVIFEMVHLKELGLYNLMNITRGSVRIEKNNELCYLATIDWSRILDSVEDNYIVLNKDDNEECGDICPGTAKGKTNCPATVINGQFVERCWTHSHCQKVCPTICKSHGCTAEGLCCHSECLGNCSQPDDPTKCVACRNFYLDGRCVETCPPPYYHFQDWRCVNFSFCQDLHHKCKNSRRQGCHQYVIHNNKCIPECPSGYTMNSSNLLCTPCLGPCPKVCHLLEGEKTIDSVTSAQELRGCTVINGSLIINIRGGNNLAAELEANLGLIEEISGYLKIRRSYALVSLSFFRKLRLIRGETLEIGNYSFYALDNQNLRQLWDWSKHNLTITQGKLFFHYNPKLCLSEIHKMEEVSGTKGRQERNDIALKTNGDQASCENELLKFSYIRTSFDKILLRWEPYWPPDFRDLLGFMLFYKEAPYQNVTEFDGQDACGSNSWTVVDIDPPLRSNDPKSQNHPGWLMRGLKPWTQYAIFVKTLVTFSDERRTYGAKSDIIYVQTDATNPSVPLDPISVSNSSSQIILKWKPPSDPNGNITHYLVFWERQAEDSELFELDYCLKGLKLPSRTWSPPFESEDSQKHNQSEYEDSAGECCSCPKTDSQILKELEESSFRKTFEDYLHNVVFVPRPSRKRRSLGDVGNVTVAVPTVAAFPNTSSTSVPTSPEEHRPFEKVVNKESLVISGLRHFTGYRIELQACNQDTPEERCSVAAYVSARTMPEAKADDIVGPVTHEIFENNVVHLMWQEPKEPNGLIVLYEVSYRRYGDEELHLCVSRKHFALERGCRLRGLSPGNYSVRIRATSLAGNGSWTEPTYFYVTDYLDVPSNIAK

binding result | Binder
no binding | 17-scFv-Fc (Fc fusion, scFv linked directly to rabbit IgG Fc, made in HEK293F cells; dimer; also called clone 17 scFv-Fc; not shown: rabbit IgG Fc region (pIRES-rabbit Fc vector)) QVQLLQSAGALVQPGGSLRLSCAASGFTFSSSTMHWVRQAPGKGLEWVAVVSYDGNTQYYADSVKGRFTISRDNSKNTLSLQMNNLRAEDTAVYYCAGLWGSLLGYFQHWGQGTLVTVSSGGGGSGGGGSGGGGSDIQMTQSPSFLSASVGDRVTITCRASQGVNNYLAWYQQKPGKAPKLLIYAASTLQSGVPSSFSGSGSGTEFTLTISSLQPEDFATYFCQQAHSFPPTFGGGTKLEIKR
no binding | 46.1-scFv-Fc (Fc fusion, scFv linked directly to rabbit IgG Fc, made in HEK293F cells; dimer; also called clone 46.1 scFv-Fc; not shown: rabbit IgG Fc region (pIRES-rabbit Fc vector)) QVQLQESGGGLAQPGGSLRLSCAASGFTFSGYWMHWVRQAPGKGLVWVSRIKGDGTDIEYADSVKGRFTISRDNAKNTLYLQMNSLRAEDTAVYYCARDLRQTHWFDSWGQGTLVTVSSGGGGSGGGGSGGGGSQSALTQDPAVSVALGQTVRITCQGDSLRSYYASWYQQKPGQAPVLVMYGENSRPSGIPDRFSGSNSGNTASLIITGAQAEDEADYYCSSRDTSGNHVLFGGGTKLTVLG
